The values that follow come from patent US20100099610.

Data set [1] addresses wild type human growth hormone, P01241.

hGHQ40N, P01241, sequence (P01241 27-217 Q66N): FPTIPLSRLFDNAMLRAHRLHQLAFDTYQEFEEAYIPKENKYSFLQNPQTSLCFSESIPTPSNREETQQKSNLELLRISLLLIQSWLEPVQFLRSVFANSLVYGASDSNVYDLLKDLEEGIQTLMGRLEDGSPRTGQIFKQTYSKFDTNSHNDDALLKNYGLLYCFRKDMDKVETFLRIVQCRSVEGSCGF
wild type human growth hormone, P01241, sequence (P01241 27-217): as the sequence (P01241 27-217 Q66N) above, with N40Q counted along it
hGHQ141N, P01241, sequence (P01241 27-217 Q167N): as the sequence (P01241 27-217 Q66N) above, with N40Q, Q141N counted along it

B1: AlaPro-mTGase from S. ladakanum (protein)
chain: APDSDERVTPPAEPLDRMPDPYRPSYGRAETIVNNYIRKWQQVYSHRDGRKQQMTEEQREWLSYGCVGVTWVNSGQYPTNRLAFAFFDEDKYKNELKNGRPRSGETRAEFEGRVAKDSFDEAKGFQRARDVASVMNKALENAHDEGAYLDNLKKELANGNDALRNEDARSPFYSALRNTPSFKDRNGGNHDPSKMKAVIYSKHFWSGQDRSGSSDKRKYGDPEAFRPDRGTGLVDMSRDRNIPRSPTSPGESFVNFDYGWFGAQTEADADKTVWTHGNHYHAPNGSLGAMHVYESKFRNWSDGYSDFDRGAYVVTFVPKSWNTAPDKVKQGWP
Protein B1 registered an Activity towards hGHQ40N (RFU/sec/µg), dansyl-cadaverine fluorescence kinetics in the data set with hGHQ40N, P01241 of 6.91 RFU/sec/µg. Moreover, in the data set with hGHQ141N, P01241, the Activity (RFU/sec/µg), dansyl-cadaverine fluorescence kinetics came to 1.02 RFU/sec/µg.

B2: GlyPro-mTGase_Y62H_Y75F from S. ladakanum (protein)
chain: GPDSDERVTPPAEPLDRMPDPYRPSYGRAETIVNNYIRKWQQVYSHRDGRKQQMTEEQREWLSHGCVGVTWVNSGQFPTNRLAFAFFDEDKYKNELKNGRPRSGETRAEFEGRVAKDSFDEAKGFQRARDVASVMNKALENAHDEGAYLDNLKKELANGNDALRNEDARSPFYSALRNTPSFKDRNGGNHDPSKMKAVIYSKHFWSGQDRSGSSDKRKYGDPEAFRPDRGTGLVDMSRDRNIPRSPTSPGESFVNFDYGWFGAQTEADADKTVWTHGNHYHAPNGSLGAMHVYESKFRNWSDGYSDFDRGAYVVTFVPKSWNTAPDKVTQGWP
In data set [1], B2 showed an RS (relative selectivity against AlaPro-mTGase from S. mobaraensis), separate experiment of 7.6; a Selectivity (Q141/Q40) by CE, separate experiment; reaction time 60 m, enzyme 8.8 µg/ml of 76.5; a hGH conv. rate (%) by CE, separate experiment; reaction time 60 m, enzyme 8.8 µg/ml of 38.1%; a hGH conv. rate (%) by CE; reaction time 120 m, enzyme 7 µg/ml of 49.4%.

B3: GlyPro-mTGase from S. ladakanum (protein)
chain: GPDSDERVTPPAEPLDRMPDPYRPSYGRAETIVNNYIRKWQQVYSHRDGRKQQMTEEQREWLSYGCVGVTWVNSGQYPTNRLAFAFFDEDKYKNELKNGRPRSGETRAEFEGRVAKDSFDEAKGFQRARDVASVMNKALENAHDEGAYLDNLKKELANGNDALRNEDARSPFYSALRNTPSFKDRNGGNHDPSKMKAVIYSKHFWSGQDRSGSSDKRKYGDPEAFRPDRGTGLVDMSRDRNIPRSPTSPGESFVNFDYGWFGAQTEADADKTVWTHGNHYHAPNGSLGAMHVYESKFRNWSDGYSDFDRGAYVVTFVPKSWNTAPDKVKQGWP
As for B3, the Activity towards hGHQ40N (RFU/sec/µg), dansyl-cadaverine fluorescence kinetics with hGHQ40N, P01241 amounted to 4.25 RFU/sec/µg. Moreover, the Activity (RFU/sec/µg), dansyl-cadaverine fluorescence kinetics with hGHQ141N, P01241 was 0.48 RFU/sec/µg. Also, the hGH conv. rate (%) by CE; reaction time 15 m, enzyme 16 µg/ml in data set [1] was determined as 55%.

B4: GlyPro-mTGase_Y62H_Y75N from S. ladakanum (protein)
chain: GPDSDERVTPPAEPLDRMPDPYRPSYGRAETIVNNYIRKWQQVYSHRDGRKQQMTEEQREWLSHGCVGVTWVNSGQNPTNRLAFAFFDEDKYKNELKNGRPRSGETRAEFEGRVAKDSFDEAKGFQRARDVASVMNKALENAHDEGAYLDNLKKELANGNDALRNEDARSPFYSALRNTPSFKDRNGGNHDPSKMKAVIYSKHFWSGQDRSGSSDKRKYGDPEAFRPDRGTGLVDMSRDRNIPRSPTSPGESFVNFDYGWFGAQTEADADKTVWTHGNHYHAPNGSLGAMHVYESKFRNWSDGYSDFDRGAYVVTFVPKSWNTAPDKVKQGWP
On to B4, for which the hGH conv. rate (%) by CE; reaction time 75 m, enzyme 34.5 µg/ml in data set [1] stood at 38%.

B5: GlyPro-mTGase_Y75F from S. ladakanum (protein)
chain: GPDSDERVTPPAEPLDRMPDPYRPSYGRAETIVNNYIRKWQQVYSHRDGRKQQMTEEQREWLSYGCVGVTWVNSGQFPTNRLAFAFFDEDKYKNELKNGRPRSGETRAEFEGRVAKDSFDEAKGFQRARDVASVMNKALENAHDEGAYLDNLKKELANGNDALRNEDARSPFYSALRNTPSFKDRNGGNHDPSKMKAVIYSKHFWSGQDRSGSSDKRKYGDPEAFRPDRGTGLVDMSRDRNIPRSPTSPGESFVNFDYGWFGAQTEADADKTVWTHGNHYHAPNGSLGAMHVYESKFRNWSDGYSDFDRGAYVVTFVPKSWNTAPDKVKQGWP
As for B5, in data set [1], the hGH conv. rate (%) by CE; reaction time 60 m, enzyme 12.9 µg/ml was determined as 41% and the “hGH conversion rate by CE (FIG. 2E); reaction time 75 m” value is reported as “hGH conversion rate=33%”.

B6: GlyPro-mTGase_Y75N from S. ladakanum (protein)
chain: GPDSDERVTPPAEPLDRMPDPYRPSYGRAETIVNNYIRKWQQVYSHRDGRKQQMTEEQREWLSYGCVGVTWVNSGQNPTNRLAFAFFDEDKYKNELKNGRPRSGETRAEFEGRVAKDSFDEAKGFQRARDVASVMNKALENAHDEGAYLDNLKKELANGNDALRNEDARSPFYSALRNTPSFKDRNGGNHDPSKMKAVIYSKHFWSGQDRSGSSDKRKYGDPEAFRPDRGTGLVDMSRDRNIPRSPTSPGESFVNFDYGWFGAQTEADADKTVWTHGNHYHAPNGSLGAMHVYESKFRNWSDGYSDFDRGAYVVTFVPKSWNTAPDKVKQGWP
With B6, in data set [1], the hGH conv. rate (%) by CE; reaction time 120 m, enzyme 6.5 µg/ml came out at 44% and the “hGH conversion rate by CE (FIG. 2F); reaction time 90 m” value was “hGH conversion rate=50%”.

B7: Mature mTGase from Streptoverticillium ladakanum (protein)
chain: DSDERVTPPAEPLDRMPDPYRPSYGRAETIVNNYIRKWQQVYSHRDGRKQQMTEEQREWLSYGCVGVTWVNSGQYPTNRLAFAFFDEDKYKNELKNGRPRSGETRAEFEGRVAKDSFDEAKGFQRARDVASVMNKALENAHDEGAYLDNLKKELANGNDALRNEDARSPFYSALRNTPSFKDRNGGNHDPSKMKAVIYSKHFWSGQDRSGSSDKRKYGDPEAFRPDRGTGLVDMSRDRNIPRSPTSPGESFVNFDYGWFGAQTEADADKTVWTHGNHYHAPNGSLGAMHVYESKFRNWSDGYSDFDRGAYVVTFVPKSWNTAPDKVKQGWP
As for B7, in the data set with hGHQ40N, P01241, the Activity towards hGHQ40N (RFU/sec/µg), dansyl-cadaverine fluorescence kinetics stood at 3.55 RFU/sec/µg; the “HPLC peak area of product-Q141 (FIG. 3, top)” value was “The first peak (26.5 min, area 1238) is product-Q141”; the product-Q141 after 30 minutes, FPLC areas normalized to 100 (normalized to 100) came to 77. Besides, in the data set with hGHQ141N, P01241, the Activity (RFU/sec/µg), dansyl-cadaverine fluorescence kinetics came out at 0.63 RFU/sec/µg; the “HPLC peak area of product-Q40 (FIG. 3, bottom)” value was “The first peak (19.2 min, area 127) is product-Q40”; the product-Q40 after 30 minutes, FPLC areas normalized to 100 (normalized to 100) stood at 10.

B8: Met-mTGase from S. mobaraensis (protein)
chain: MDSDDRVTPPAEPLDRMPDPYRPSYGRAETVVNNYIRKWQQVYSHRDGRKQQMTEEQREWLSYGCVGVTWVNSGQYPTNRLAFASFDEDRFKNELKNGRPRSGETRAEFEGRVAKESFDEEKGFQRAREVASVMNRALENAHDESAYLDNLKKELANGNDALRNEDARSPFYSALRNTPSFKERNGGNHDPSRMKAVIYSKHFWSGQDRSSSADKRKYGDPDAFRPAPGTGLVDMSRDRNIPRSPTSPGEGFVNFDYGWFGAQTEADADKTVWTHGNHYHAPNGSLGAMHVYESKFRNWSEGYSDFDRGAYVITFIPKSWNTAPDKVKQGWP
Protein B8 displayed an Activity towards hGHQ40N (RFU/sec/µg), dansyl-cadaverine fluorescence kinetics with hGHQ40N, P01241 of 5.44 RFU/sec/µg. This protein gave an Activity (RFU/sec/µg), dansyl-cadaverine fluorescence kinetics with hGHQ141N, P01241 of 1.24 RFU/sec/µg.

B9: mTGase from Streptomyces mobaraensis (protein)
chain: DSDDRVTPPAEPLDRMPDPYRPSYGRAETVVNNYIRKWQQVYSHRDGRKQQMTEEQREWLSYGCVGVTWVNSGQYPTNRLAFASFDEDRFKNELKNGRPRSGETRAEFEGRVAKESFDEEKGFQRAREVASVMNRALENAHDESAYLDNLKKELANGNDALRNEDARSPFYSALRNTPSFKERNGGNHDPSRMKAVIYSKHFWSGQDRSSSADKRKYGDPDAFRPAPGTGLVDMSRDRNIPRSPTSPGEGFVNFDYGWFGAQTEADADKTVWTHGNHYHAPNGSLGAMHVYESKFRNWSEGYSDFDRGAYVITFIPKSWNTAPDKVKQGWP
As for B9, in the data set with hGHQ40N, P01241, the Activity towards hGHQ40N (RFU/sec/µg), dansyl-cadaverine fluorescence kinetics was 3.35 RFU/sec/µg; the “HPLC peak area of product-Q141 (FIG. 4, top)” value is “The first peak (26.9 min, area 1283) is product-Q141”; the product-Q141 after 30 minutes, FPLC areas normalized to 100 (normalized to 100) is 71. Also, in the data set with hGHQ141N, P01241, the Activity (RFU/sec/µg), dansyl-cadaverine fluorescence kinetics is 0.98 RFU/sec/µg; the “HPLC peak area of product-Q40 (FIG. 4, bottom)” value is listed as “The first peak (19.5 min, area 296) is product-Q40”; the product-Q40 after 30 minutes, FPLC areas normalized to 100 (normalized to 100) is 19.

B10: AlaPro-mTGase from S. mobaraensis (protein)
chain: APDSDDRVTPPAEPLDRMPDPYRPSYGRAETVVNNYIRKWQQVYSHRDGRKQQMTEEQREWLSYGCVGVTWVNSGQYPTNRLAFASFDEDRFKNELKNGRPRSGETRAEFEGRVAKESFDEEKGFQRAREVASVMNRALENAHDESAYLDNLKKELANGNDALRNEDARSPFYSALRNTPSFKERNGGNHDPSRMKAVIYSKHFWSGQDRSSSADKRKYGDPDAFRPAPGTGLVDMSRDRNIPRSPTSPGEGFVNFDYGWFGAQTEADADKTVWTHGNHYHAPNGSLGAMHVYESKFRNWSEGYSDFDRGAYVITFIPKSWNTAPDKVKQGWP
With B10, in the data set with hGHQ40N, P01241, the Activity towards hGHQ40N (RFU/sec/µg), dansyl-cadaverine fluorescence kinetics is 5.05 RFU/sec/µg. Besides, the Activity (RFU/sec/µg), dansyl-cadaverine fluorescence kinetics with hGHQ141N, P01241 was 1.56 RFU/sec/µg. Besides, in data set [1], the “conversion rate by CE (FIG. 2B); reaction time 30 minutes” value is given as “conversion rate=32%”; the hGH conv. rate (%) by CE, reference of the separate experiment; reaction time 45 m, enzyme 4.6 µg/ml was found to be 39%; the hGH conv. rate (%) by CE; reaction time 30 m, enzyme 9.6 µg/ml turned out to be 33%.

B11: GlyPro-mTGase from S. mobaraensis (protein)
chain: GPDSDDRVTPPAEPLDRMPDPYRPSYGRAETVVNNYIRKWQQVYSHRDGRKQQMTEEQREWLSYGCVGVTWVNSGQYPTNRLAFASFDEDRFKNELKNGRPRSGETRAEFEGRVAKESFDEEKGFQRAREVASVMNRALENAHDESAYLDNLKKELANGNDALRNEDARSPFYSALRNTPSFKERNGGNHDPSRMKAVIYSKHFWSGQDRSSSADKRKYGDPDAFRPAPGTGLVDMSRDRNIPRSPTSPGEGFVNFDYGWFGAQTEADADKTVWTHGNHYHAPNGSLGAMHVYESKFRNWSEGYSDFDRGAYVITFIPKSWNTAPDKVKQGWP
In the data set with hGHQ40N, P01241, B11 had an Activity towards hGHQ40N (RFU/sec/µg), dansyl-cadaverine fluorescence kinetics of 4.28 RFU/sec/µg. The protein also gave an Activity (RFU/sec/µg), dansyl-cadaverine fluorescence kinetics in the data set with hGHQ141N, P01241 of 1.13 RFU/sec/µg.

B12: Met-mTGase from S. ladakanum (protein)
chain: MDSDERVTPPAEPLDRMPDPYRPSYGRAETIVNNYIRKWQQVYSHRDGRKQQMTEEQREWLSYGCVGVTWVNSGQYPTNRLAFAFFDEDKYKNELKNGRPRSGETRAEFEGRVAKDSFDEAKGFQRARDVASVMNKALENAHDEGAYLDNLKKELANGNDALRNEDARSPFYSALRNTPSFKDRNGGNHDPSKMKAVIYSKHFWSGQDRSGSSDKRKYGDPEAFRPDRGTGLVDMSRDRNIPRSPTSPGESFVNFDYGWFGAQTEADADKTVWTHGNHYHAPNGSLGAMHVYESKFRNWSDGYSDFDRGAYVVTFVPKSWNTAPDKVKQGWP
In turn, B12 returned an Activity towards hGHQ40N (RFU/sec/µg), dansyl-cadaverine fluorescence kinetics with hGHQ40N, P01241 of 4.74 RFU/sec/µg. For the same protein, the Activity (RFU/sec/µg), dansyl-cadaverine fluorescence kinetics with hGHQ141N, P01241 amounted to 0.8 RFU/sec/µg.
